# According to US20030180744, “High affinity oligonucleotide ligands to growth factors” (GILEAD SCIENCES, INC., published 2003):
# Substitutions are numbered along the chain they refer to.
# T1: KGF (hKGF) (Homo sapiens, UniProt P21781 P21781:32-194)
# T1 sequence: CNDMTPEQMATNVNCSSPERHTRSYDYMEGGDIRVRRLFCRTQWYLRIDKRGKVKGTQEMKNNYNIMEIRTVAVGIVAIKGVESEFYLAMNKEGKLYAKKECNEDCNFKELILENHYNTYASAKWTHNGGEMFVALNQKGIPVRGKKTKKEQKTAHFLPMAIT
# B1: lib6-30 (ssRNA)
# RNA: GGGGGAGAACGCGGAUCCUGCUAGACCGAGGAUGCAAAGGGACAUGCAUUAGGGAAACCUAUUAUAAGAACGCGGUCGCAGAAGCUUCGCUCUAGAUCUCCCUUUAGUGAGGGUUA
# modifications: 2'-F pyrimidines
# B2: lib1-20-3-82 (ssRNA)
# RNA: GGGGGAGAACGCGGAUCCUGCUAGACCGAGGAUGCAAAGGGACAUGCAUUAGGGAAACCUAUGUAUAAGAACGCGGUCGCAG
# modifications: 2'-F pyrimidines
# B3: lib3-44 (ssRNA)
# RNA: GGGGGAGAACGCGGAUCCUGAGAAGGACGUCGGGGUGAGGUGCAGCAGAAAGGGCCGGCACCACAUGACGUAAAAGCUUCGCUCUAGAUCUCCCUUUAGUGAGGGUUA
# modifications: 2'-NH2 pyrimidines
# B4: lib6-23 (ssRNA)
# RNA: GGGGGAGAACGCGGAUCCAAGCUUCGAGUAGACAGGAGGGAGGGGUGGAUGUGGAGUCUCGAGAAGCUUCGCUCUAGAUCUCCCUUUAGUGAGGGUUA
# modifications: 2'-NH2 pyrimidines
# B5: lib5-48 (ssRNA)
# RNA: GGGGGAGAACGCGGAUCCGGCAAUCCCAGGCGCAUAGCUUCCGAGUAGACAGGAGGGAGGGGUGGAUGUGGUGUACGAGGAAGCUUCGCUCUAGAUCUCCCUUUAGUGAGGGUUA
# modifications: 2'-NH2 pyrimidines
# B6: 57N (ssRNA)
# RNA: GGGAGGACGAUGCGGUCGUGGGGUGGGUGGGGGCAGCGUUGGAAUAAGUAACUGGUAACGGCUGGCCAGACGACUCGCCCGA
# modifications: 2'-NH2 pyrimidines
# B7: lib3-3 (ssRNA)
# RNA: GGGGGAGAACGCGGAUCCGAGCAACCCCAGGCGCAUAGCUUCCGAGUAGACAGGAGGGAGGGGUGGAUGUGGCGUCUACUCGGUGUCGUGAAGCUUCGCUCUAGAUCUCCCUUUAGUGAGGGUUA
# modifications: 2'-NH2 pyrimidines
# B8: lib4-12 boundaries (ssRNA)
# RNA: GGAGAACGCGGAUCCUGAGAAGGACGUCGGGGUCAACGGGGUGAGGUGCAGCAGAAAGGGCCGGCACCA
# modifications: modified pyrimidines
# B9: lib7-21 (ssRNA)
# RNA: GGGGGAGAACGCGGAUCCGAGCAAUCCCGGGCGCAUAGCUUCCGAGGAGACAGGCGGGAGGGGUGGAUGUGGCGUCUCGAGAAGCUUCGCUCUAGAUCUCCCUUUAGUGAGGGUUA
# modifications: 2'-F U, 2'-NH2 C
# B10: lib7-43 (ssRNA)
# RNA: B9 RNA with G29A, G47U
# modifications: 2'-F U, 2'-NH2 C
# B11: lib2-6-4 (ssRNA)
# RNA: B9 RNA with G29A, G47U, C55A, C73U
# modifications: 2'-NH2 pyrimidines
# B12: 65N (ssRNA)
# RNA: GGGAGGACGAUGCGGUAACGUGGAAUAGGGUUAAACAGCUGGAAAUAACGUAGGUGGCCAGACGACUCGCCCGA
# modifications: 2'-NH2 pyrimidines
# B13: 59N (ssRNA)
# RNA: GGGAGGACGAUGCGGGGUGGGUGGUUACCUGUAAUUAUAUUGAUUCUGGCUUUAGCAGACGACUCGCCCGA
# modifications: 2'-NH2 pyrimidines
# B14: 50F (ssRNA)
# RNA: GGGAGGACGAUGCGGUGAUCAAUCGGCGCUUUACUCUUGCGCUCACCGUGCCCCAGACGACUCGCCCGA
# modifications: 2'-F pyrimidines
# B15: lib1-20-5 (ssRNA)
# RNA: GGGGGAGAACGCGGAUCCAAGAAUGUUCGGCCGCACGAGGUGACAGUGGUGCGGAUACGGACCGAUUGGGUUUGCCAAGCUUCGCUCUAGAUCUCCCUUUAGUGAGGGUUA
# modifications: 2'-F pyrimidines
# B16: lib3-45 (ssRNA)
# RNA: GGGGGAGAACGCGGAUCCGGAAGUCUGGUCUUUGGGGAGUCCGCAUGGCCCUGGCGAAAGCUUCGCUCUAGAUCUCCCUUUAGUGAGGGUUA
# modifications: 2'-NH2 pyrimidines
# B17: lib9-10 (ssRNA)
# RNA: GGGGGAGAACGCGGAUCCUGUCUCCACCGCCGAUACUGGGGUUCCUGGGGCCCCUCCAUGCAGGAGGGGUGGUUCGGAGAAAGCUUCGCUCUAGAUCUCCCUUUAGUGAGGGUUA
# modifications: 2'-NH2 U, 2'-F C
# Key:
# [1] = target: T2, TGFβ1 (Homo sapiens, UniProt P01137 P01137:279-390); assay: filter; not inhibitory; settings: tags: Genentech; biotinylated version used in bead assay; chain copies: 2
# T2 sequence (P01137 279-390, one chain of several): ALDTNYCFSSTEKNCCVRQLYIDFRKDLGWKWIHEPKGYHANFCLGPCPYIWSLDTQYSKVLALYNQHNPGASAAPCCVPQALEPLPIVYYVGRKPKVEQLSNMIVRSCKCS
# [2] = target: T2, TGFβ1; assay: filter; boundary experiment, each terminus separately; settings: tags: Genentech or R&D Systems; chain copies: 2
# [3] = target: T1, KGF (hKGF); assay: filter; high +, low +; settings: tags: Upstate Biotechnology
# Procedure: (§1) In an effort to identify shorter KGF ligands that retained binding, the binding activity of various deletions of the shortest truncate of ligand 14F, namely 14F3′T were tested. Deletions were tested in all the structural elements of the proposed pseudoknot structure. RNA transcripts containing 2′F pyrimidines and 2′OH purines were obtained by in vitro transcription using synthetic DNA templates. The activity of each ligand is shown by scoring for both the high (H) and low (L) affinity component of the 14F3′T binding curve with +(active) or −(not active). Truncates T35 and T36 represent two complementary halves of 14F3′T molecule and were additionally tested as an equimolar mixture. The structural elements of the proposed pseudoknot structure are separated by (1) and are indicated by symbols S1 (stem 1), S2 (stem 2), L1 (loop 1) and L3 (loop 3). The proposed pseudoknot structure for 14F3′T is a non-H-type pseudoknot and lacks L2 (loop 2). The complementary sequences forming S1 (S1 and S1′) and S2 (S2 and S2′) are marked by single and double underlines respectfully. In the tabulated sequences, deleted bases were replaced with periods (.). […] Deletions in loop 3 (L3), however, were tolerated as long as one copy of the RRYY box remained intact. The shortest ligand that retained activity is T22 which is a 43-mer. In trying to obtain shorter ligands by truncating L3 further a mutant version of T22 (designated T22mu) was used where the last GC base pair of S1 was eliminated by a G to U mutation at position 6. The reasoning for this mutation was to enhance the flexibility of the double stranded region of this ligand by allowing an unpaired base between S1 and S2.
# [4] = target: PDGF-BB (Homo sapiens, UniProt P01127 P01127:82-190); assay: competition; PDGF alpha-receptor PAE cells, 4 C; settings: tags: R&D Systems, E. coli; chain copies: B chain dimer; three-way helix junction
# PDGF-BB, sequence (P01127 82-190, one chain of several): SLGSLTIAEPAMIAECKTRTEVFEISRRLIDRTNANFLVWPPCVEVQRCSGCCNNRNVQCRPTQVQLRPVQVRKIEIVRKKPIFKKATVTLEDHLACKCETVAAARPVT
# Procedure: The binding of ¹²⁵I-PDGF-AA and ¹²⁵I-PDGF-BB to porcine aortic endothelial (PAE) cells transfected with PDGF α- or β-receptors were performed as described (Heldin et al., (1988) EMBO J. 7:1387-1394). Different concentrations of DNA ligands were added to the cell culture (1.5 cm²) in 0.2 ml of phosphate buffered saline supplemented with 1 mg bovine serum albumin per ml together with ¹²⁵I-PDGF-AA (2 ng, 100,000 cpm) or ¹²⁵I-PDGF-BB (2 ng, 100,000 cpm). After incubation at 4° C. for 90 min, the cell cultures were washed and cell associated radioactivity determined in a γ-counter (Heldin et al., (1988) EMBO J. 7:1387-1394).
# In order to determine whether the DNA ligands to PDGF were able to inhibit the effects of PDGF isoforms on cultured cells, the effects on binding of ¹²⁵I-labeled PDGF isoforms to PDGF α- and β-receptors stably expressed in porcine aortic endothelial (PAE) cells by transfection was determined.
# [5] = target: T2, TGFβ1; assay: filter; cell IC50 119 nM; settings: tags: Genentech; biotinylated version used in bead assay; chain copies: 2
# [6] = target: T2, TGFβ1; assay: cell_activity; settings: tags: Genentech or R&D Systems; chain copies: 2
# Procedure: MLEC-Pail/luc cells were plated at 3.2×10⁴ cells per well in a 96 well Falcon plate, in 100 μl of DME+10% fetal bovine serum overnight. Media was made from autoclaved water. The cells were washed three times ([…]) in serum free DME plus Solution A (1:1). Solution A is 30 mM Hepes pH 7.6, 10 mM glucose, 3.0 mM KCl, 131 mM NaCl, 1.0 mM disodium phosphate. Samples (100 μl) were added in DME containing 20 mM Hepes pH 7.5, and 0.1% BSA (Fluka, radioimmunoassay grade). All samples were in triplicate. After six hours at 37° C. in a 5% CO₂ incubator the media was removed and cells were washed three times (100 μl each) in cold PBS. Lysis buffer (75 μl) (Analytical Luminescence Laboratory) was added and the plates incubated on ice for 20 min. The plates were sealed and frozen at −80° C. until assayed. Samples (25 μl) were assayed for luciferase activity with the Enhanced Luciferase Assay Kit from Analytical Luminescence Laboratory (San Diego, Calif., USA) according to the manufacturer's instructions using the Berthold Microlumat LB96P luminometer.
# Ligands tested for inhibition of TGFβ1 activity were tested at a minimum of five concentrations. The ligands were serially diluted in DME, 20 mM Hepes pH 7.5, 0.1% Fluka BSA in polypropylene tubes and an equal volume of media containing 12 pM TGFβ1 was added to each tube, vortexed and transferred to the cells without further incubation.
# [7] = target: T2, TGFβ1; assay: filter; not inhibitory in cell assay; settings: tags: Genentech; biotinylated version used in bead assay; chain copies: 2
# [8] = target: T1, KGF (hKGF); assay: filter; similar to random RNA; settings: tags: Upstate Biotechnology; label: 32P
# [9] = target: T2, TGFβ1; assay: filter; 37 C, KRH buffer; settings: tags: Genentech; biotinylated version used in bead assay; chain copies: 2
# [10] = target: T1, KGF (hKGF); assay: filter; 43-mer, shortest active truncate; retains high and low affinity components; settings: tags: Upstate Biotechnology; pseudoknot (predicted)
# Procedure: as §1, with “In trying to obtain shorter ligands by truncating L3 further a mutant version of T22 (designated T22mu) was used where the last GC base pair of S1 was eliminated by a G to U mutation at position 6. The reasoning for this mutation was to enhance the flexibility of the double stranded region of this ligand by allowing an unpaired base between S1 and S2.” left out
# [11] = target: T1, KGF (hKGF); assay: filter; biphasic, high affinity 21%; Kd2 2.10 nM; settings: tags: Upstate Biotechnology; label: 32P
binder,measurement,setting,value
B1,Kd,[1],8.8 nM
B2,Kd,[1],6.1 nM
"GCUUCCGAGUAGACAGGAGGGAGGGGUGGAUGUGGCGUCUAC (ssRNA, modified pyrimidines) [lib3-13 boundaries (38-79)]",binding result,[2],binds
"GGGAGGACGAUGCGGUGGUCUCCCAAUUCUAUCUCCAUCGUAUC (ssRNA, 2'-F pyrimidines) [T18]",binding result,[3],binds
"GGGAGGACGAUGCGGUGGUCUCCCAAUUCUUUCUCCAUCGUAUC (ssRNA, 2'-F pyrimidines) [T21]",binding result,[3],binds
"TGGGAGGGCGCGTTCTTCGTGGTTACTTTTAGTCCCGT (ssDNA, 3'-3' idT) [20t]",IC50,[4],~1 nM
B3,Kd,[5],1.3 nM
same,IC50,[6],119 nM
B4,Kd,[7],3.4 nM
B5,Kd,[7],3.8 nM
B6,Kd,[8],35.8 nM
B7,Kd,[9],1.7 nM
"GGGAGGACGAUGCGGUGGUCUCCCAAUUCUUCUCCAUCGUAUC (ssRNA, 2'-F pyrimidines) [T22]",binding result,[10],binds
B8,binding result,[2],binds
B9,Kd,[7],2.4 nM
B10,Kd,[7],3.3 nM
B11,Kd,[7],3.1 nM
B12,Kd,[8],26.6 nM
"TACTCAGGGCACTGCAAGCAATTGTGGTCCCAATGGGCTGAGTAT (ssDNA, 3'-3' idT) [41t]",IC50,[4],~1 nM
B13,Kd,[8],22 nM
"GGGAGGACGAUGCGGUGGUCUCCCAAUUCUAUUCUCCAUCGUAUC (ssRNA, 2'-F pyrimidines) [T5]",binding result,[3],binds
B14,Kd,[11],0.12 nM
"GGGAGGACGAUGCGGUGGUCUCCCCUAAACUUUCUCCAUCGUAUC (ssRNA, 2'-F pyrimidines) [T4]",binding result,[3],binds
B15,Kd,[1],46 nM
B16,Kd,[1],1.9 nM
B17,Kd,[1],1.1 nM
